In experiment [1] the target is Hck SH3 (Homo sapiens) (UniProt P08631). To be noted: cited from earlier work.
Experiment [2] addresses GST-Fyn SH3 domain fusion protein (wild type) (UniProt P06241). The experiment is described as follows: SPR; Biacore 3000, HBS buffer (10 mM Hepes-NaOH pH 7.4, 150 mM NaCl, 0.005% Tween-20), 25°C; GST-SH3 captured on CM5 chip via amine-coupled anti-GST antibody; NS5A 3 μM - 100 nM flowed over, in triplicate; 1:1 Langmuir fit. On the technique in general: In SPR one partner is held on a chip, and binding of the other changes the refractive index at the surface.

Experiment [3] concerns the target Hck SH3 (Homo sapiens) (UniProt P08631). The following applies: cited from earlier work. The source holds these as a separate data set.

Read-outs that look alike come from different tables or passages of the source.

These results are taken from publication PMC2259325.

GST-Fyn SH3 domain fusion protein (wild type), sequence (P06241 82-143): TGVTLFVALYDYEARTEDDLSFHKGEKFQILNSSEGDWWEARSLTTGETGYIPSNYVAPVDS
Hck SH3 (Homo sapiens), sequence (P08631 75-141): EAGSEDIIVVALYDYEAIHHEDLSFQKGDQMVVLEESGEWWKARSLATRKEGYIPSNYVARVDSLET

On to “Nef PxxPxR-containing peptide PxxPxR peptide (from UniProt P04324)”, for which the dissociation constant Kd (in general, the equilibrium constant for the complex coming apart) with Hck SH3 (Homo sapiens) [1] was 91 µM.

With “NS5A(Δ250), N-terminally truncated hepatitis C virus non-structural 5A protein (domain or fragment)”, in experiment [2], the off-rate (koff) (as a rule, the first-order rate constant of dissociation) was 0.00494 s⁻¹ and the on-rate (kon) (commonly the second-order rate constant of association) stood at 9050 M⁻¹ s⁻¹.

In the case of Nef (from UniProt P04324), the Kd in the experiment with Hck SH3 (Homo sapiens) [3] is 0.25 µM.
